{"source": "the nanobody polyreactivity screen of Harvey et al. (2022)"}
{"experiment": "yeast display, Sf9 membrane polyspecificity reagent, FACS + sequencing; frameworks hold sequencing errors", "in_short": "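Genes from sorted yeast were amplified by colony PCR, read by MiSeq 2 × 250 sequencing and filtered on CDR length. These cells carried a synthetic nanobody library in Saccharomyces cerevisiae BJ5465 and were sorted by FACS into low and high (top ~1%) gates on anti-HA and streptavidin fluorescence. Polyreactivity is labelled according to the gate of origin.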"}
{"sequence": "QVQLVESGGGLVQAGGSLRLSCAASGSTFGNYAMGWDRQAPGKERELVAAITSSGRTYYADSVKGRFTISRDNAKNTVYFQMNSLKPEDTAVYYCAAKSSRGGSVGFDYWGQGTQVTVSS", "polyreactivity (PSR sort gate)": "high polyreactivity"}
{"sequence": "QVQLVESGGGLVQAGGSLRLSCAASGRIFPAYAMGWYRQPPGKERELVASIRRGGITYADSVKGRFTISRDNAKNTVYLQMNSLKPEDTAVYYCARPQWRDWYGYWGQGTQVTVSS", "polyreactivity (PSR sort gate)": "low polyreactivity"}
{"sequence": "QGQLVESGGGLVQAGGSLRLSCAASGYTFYANAMGWYRQAPGNEREFVASITWSGGSTYYADSVKGRFTLSRDNAKNTVYLQMNSLKPEDTAVSDCAAESWFKYDYWGQGTQVTVSS", "polyreactivity (PSR sort gate)": "low polyreactivity"}
{"sequence": "QVQLVESGGGLVQAGGSLRLSCAASGSIFYGYAMGWYRQAPGKERELVAAITGGGSTNYADSVKGRFTISRDNAKNTVYLQMNSLKPEDTAVYYCAAAPVSLPDYGYWGQGTQVTVSS", "polyreactivity (PSR sort gate)": "low polyreactivity"}
{"sequence": "QVQLVESGGGLVQAGGSLRLSCAASGSIFFYYAMGWYRQAPGKERELVAAITSSDGDTYYADSVKGRFTISRDNAKNTVYLQMYSLKPEDTAVYYCAAESGPSPPITTSSNEYWGQGTLVTVSS", "polyreactivity (PSR sort gate)": "low polyreactivity"}
{"sequence": "QVQLVESGGGLVQAGGSLRLSCAASGSTFGYNAMGWYRQAPGKERELVAAISSSGSSTSYADSVKGRFTISRDNAQNTVYLQMNSLKPEDTAVYYCAARWTRQRYRTSYYSWGQGTEVTVSS", "polyreactivity (PSR sort gate)": "high polyreactivity"}
{"sequence": "QVQLQESGGGLVQAGGSLRLSCAASGSIFVSVTMGWYRQAPGKERELVASIGRGSTTNHADSVKGRFTISRDNAKNIVYLLMNSLKPEDTEVYYCAALESYGKYHGYWGQGTQVTVSS", "polyreactivity (PSR sort gate)": "low polyreactivity"}
{"sequence": "QVQLVESGGGLVQAGGSLRLSCAASGRIFYDNVMGWYRQAPGKERDLVAAISRSGGDTYYADSVKVRFTISRDNAKNTVYLQMNSLKPEDTAVYYCAADIYAFSGLYYYWGQGTQVTVSS", "polyreactivity (PSR sort gate)": "high polyreactivity"}
{"sequence": "QVQLVESGGGLVQAGGSLRLSCAASGGTFGAYAMGWYRQAPGKERELVAAINVGGGSTYYADSVKGRFTISRDNAKNTVDLQMNSLKPEATAGYYCAKDLYDGYWRGDYWGQGTQVTVSS", "polyreactivity (PSR sort gate)": "low polyreactivity"}
{"sequence": "QVQLVESGGGLVQAGGSLRLSCAASGSIFTWNAMGWYSQAPGKERELVAAISWIGDSTYYADSVKGRFTISRDNAKNTVYLQMNSLKPEDTAVYYCAAEYAQGSRELESWGQGTQVTVSS", "polyreactivity (PSR sort gate)": "low polyreactivity"}
{"sequence": "QVQLVESGGGLVQAGGSLRIICAASGRIFYGNTMGWYRQAPGKERELVAAITIGDSTNYADSVKGRFTISRDNAKNTVYFQMNSLKPEDTAVYYCAKRNWWGYYNYDYWGQGTQVTVSS", "polyreactivity (PSR sort gate)": "low polyreactivity"}
{"sequence": "QVQLVESGGGLVQAGGSLRLSCAASGFTFIRYAMGWYRQAPGKERELVAAIRGTGTSTYYADSVKGRFTISRDNAKNTVYLQMNSLKPEDTAVYYCNKVAGRSPYTRYDYWGQGTQVTVSS", "polyreactivity (PSR sort gate)": "low polyreactivity"}
{"sequence": "QGQLVESGGGLVQAGGSLRLSCAASGLTLYYYAMGWYIQAPGKERELVAAINRGGSTYYADSVKGRFTISRDNAKNTVYLQMNSLKPEDTAVYYCAVDYGVRDLTYYYWGQGTQVTVSS", "polyreactivity (PSR sort gate)": "low polyreactivity"}
{"sequence": "QVQLVESGGGVVQAGGSLSLSCAASGNTFPVYAMGWYRQASAKERELVATITSGGSTNYADSVKGRFTISRDNAKNTVYLQMNSLKPEDTAVYYCARRAVYSKRRYDYWGQGTQVTVSS", "polyreactivity (PSR sort gate)": "low polyreactivity"}
{"sequence": "QVHLVESGGGLVQAGGSLRLSCAASGRTFANYAMGWYRQAPGKERELVAAISFSTVSTYYADSVKGRFTISRDNAKNTVYLQMNSLKPEDTAVYYCAARRLGYYRKVKELDYWGQGTQVTVSS", "polyreactivity (PSR sort gate)": "high polyreactivity"}
{"sequence": "QVQLVESGGGLDQAGSSLSLSCDSSGRIFYGYAMGWYRQEPGKERELVAAISWRGGRTYYADSVKGRFTISRDNAKNTVYLQMNRLIPEDTAVYYCNKDFPPQGKLLNMYYWGQGTQVTLSS", "polyreactivity (PSR sort gate)": "high polyreactivity"}
{"sequence": "QVQLVESGGGLVQAGGSLRLSCAASGRTFYSYVMGWSRQAPGKERELVAAISQSGGNTYYADSVKGRFTISRDNAKNTVYLQMNSLKPEDTAVYYCAAGGVLTSWFGQEYEYYYWGQGTQVTVSS", "polyreactivity (PSR sort gate)": "high polyreactivity"}
{"sequence": "QVQLVESGGGLVQAGGSLRLSCAASGYILYPYAMGWYRQAPGKERELVAAIRQRGGSTYYADSVKGRFTISRDNAKNTVYLQMNSLKPEDTAVYYCAAYLSPKRALTRGYGYWGQGTQVTVSS", "polyreactivity (PSR sort gate)": "high polyreactivity"}
{"sequence": "QVQLVESGGGLVQAGGRLRLSCAASGIIFTVYAMGWYRQAPGKERELVAAITSSGGRTYYADSVKGRFTISRDNAKNTVYLHMNSLKPEDTAVYYCAARLPGYVRKYDYWGQGTQVTVSS", "polyreactivity (PSR sort gate)": "high polyreactivity"}
{"sequence": "QVQIVESGGVLVQPGGILRLSCAASGFTFDAYDMGWYRQAPGKERELVAANSWRGIDTTYADSVKWRFTISRDNAKNPVFLQMNSLKPEDTAVYYCAEFVSDATVGTSKGLDYWGQGTQVTVSS", "polyreactivity (PSR sort gate)": "low polyreactivity"}
{"sequence": "QVQLVESGGGLVQAGGSLRIICAASGYIFVRNAMGWYRQAPGKERELVAAISCSGGSTYYADSVKGRFTISRDNAKNTVFLQMNSLKPEDTAVYSCAADYATVTWRGIAYDYWGQGTQVTVSS", "polyreactivity (PSR sort gate)": "low polyreactivity"}
{"sequence": "QVQLVETGGGLVQAGGSLRLSCAASGGIFVTYAMGWYRQAPGKERELVAAITSGDSTYYADSVKGRFTISRDNAKNTVYLQMNSLKAEDTGVYYCAVGSTDRVSAQGSYFTYDYWGQGTQVTVSS", "polyreactivity (PSR sort gate)": "low polyreactivity"}
{"sequence": "QVQLVESRGGLVQAGGSLRLSCAASGFTIDTYAMGWYRQAPGKERELVAGISWSGGSTYYADSVKGRFTISRDNAKNTVYLQMNSLKPEDTAVYYCNARDYSVGRYDYWGQGTQVTVSS", "polyreactivity (PSR sort gate)": "low polyreactivity"}
{"sequence": "QVQLVESGGGLVQAGGSLRLSCAASGSTYQGNAMGWYRQAPGKERELVAAISRSGGSTYADSVKGRFTISRDNAKNTVYLQMNSLKPEDTAVYYCAAYSGVGYLWFDYWGQGTQVTVSS", "polyreactivity (PSR sort gate)": "low polyreactivity"}
{"sequence": "QVQLVESGGGLVQAGGSLRLSCAASGSIFPLYGMGWYRQAPGKERELVGAISIGGRTNYADSVKGRFTISRDNAKNTVYLQMNSLKPEDTAVYYCNAVSKFVYRNRILWYDYWGQGTQVTVSS", "polyreactivity (PSR sort gate)": "high polyreactivity"}
{"sequence": "QVQLVESGGGLVQAGGSLRLSCAASGFIFGGYAMGWYRQAPGKERELVAAISRSGGSTYYADSVKGRFTISRDNEKNTVYLQMNSVKPEDTAVYYCNAVPRRQGFNYWGQCTQVTVSS", "polyreactivity (PSR sort gate)": "high polyreactivity"}
{"sequence": "QVQLVESGGGLVQAGGSLRLSCADSGLIFWAYAMGWYRQEPGTERELVAAINWRGGSTYYADSVKGRFTISRDTAKNTVYLQMNSLKPEDTAVYYCAADSYYDEYDYWGQGTQVTVSS", "polyreactivity (PSR sort gate)": "low polyreactivity"}
{"sequence": "QVQLVESGGGLVQAGGSLRLSCAASGGTYNSNAMGWYRQAPAKEREFVAAISSSGGSTYYADSVKGRFTISRDNAKNTVNLQMNSLKPEDTAVYYCAKRYPYPNCRFRFGYWGQGTQVTVSS", "polyreactivity (PSR sort gate)": "high polyreactivity"}
{"sequence": "QVQLVESGGGLVQAGGSLRLSCAASGSISIGYTMGWYRQAPGKERELVATISWSGGNTYYADSVKGRFTISRDNAKNTVYLQMNSLKPEDTAVYYCAGRWYYYPLLYDYWGQGTQVTVSS", "polyreactivity (PSR sort gate)": "low polyreactivity"}
{"sequence": "QVQLVESGGGLVQAGGSLRLSCAASGSIFVFNTMGWYRQAPGKERELVAAISDRGTRTYYADSVKGRFTISRDNAKNTVYLQMNSLKPEDTAVYYCATRVYFSPYRYDYWGQGTQVTVSS", "polyreactivity (PSR sort gate)": "high polyreactivity"}
